# In patent US7888089B2, “eNOS mutations useful for gene therapy and therapeutic screening” (Yale University, priority 1999, dated 2011):
# Positions count from the first letter of the chain named. Names and notes keep the numbering of the source.
# B1: Wild type: Wild type bovine endothelial nitric oxide synthase (eNOS) (protein, UniProt P29473 2-1205, looked up)
# Nitric oxide synthase 3: GNLKSVGQEPGPPCGLGLGLGLGLCGKQGPASPAPEPSRAPAPATPHAPDHSPAPNSPTLTRPPEGPKFPRVKNWELGSITYDTLCAQSQQDGPCTPRCCLGSLVLPRKLQTRPSPGPPPAEQLLSQARDFINQYYSSIKRSGSQAHEERLQEVEAEVASTGTYHLRESELVFGAKQAWRNAPRCVGRIQWGKLQVFDARDCSSAQEMFTYICNHIKYATNRGNLRSAITVFPQRAPGRGDFRIWNSQLVRYAGYRQQDGSVRGDPANVEITELCIQHGWTPGNGRFDVLPLLLQAPDEAPELFVLPPELVLEVPLEHPTLEWFAALGLRWYALPAVSNMLLEIGGLEFSAAPFSGWYMSTEIGTRNLCDPHRYNILEDVAVCMDLDTRTTSSLWKDKAAVEINLAVLHSFQLAKVTIVDHHAATVSFMKHLDNEQKARGGCPADWAWIVPPISGSLTPVFHQEMVNYILSPAFRYQPDPWKGSATKGAGITRKKTFKEVANAVKISASLMGTLMAKRVKATILYASETGRAQSYAQQLGRLFRKAFDPRVLCMDEYDVVSLEHEALVLVVTSTFGNGDPPENGESFAAALMEMSGPYNSSPRPEQHKSYKIRFNSVSCSDPLVSSWRRKRKESSNTDSAGALGTLRFCVFGLGSRAYPHFCAFARAVDTRLEELGGERLLQLGQGDELCGQEEAFRGWAKAAFQASCETFCVGEEAKAAAQDIFSPKRSWKRQRYRLSTQAEGLQLLPGLIHVHRRKMFQATVLSVENLQSSKSTRATILVRLDTAGQEGLQYQPGDHIGICPPNRPGLVEALLSRVEDPPPPTESVAVEQLEKGSPGGPPPSWVRDPRLPPCTLRQALTFFLDITSPPSPRLLRLLSTLAEEPSEQQELETLSQDPRRYEEWKWFRCPTLLEVLEQFPSVALPAPLLLTQLPLLQPRYYSVSSAPNAHPGEVHLTVAVLAYRTQDGLGPLHYGVCSTWLSQLKTGDPVPCFIRGAPSFRLPPDPYVPCILVGPGTGIAPFRGFWQERLHDIESKGLQPAPMTLVFGCRCSQLDHLYRDEVQDAQERGVFGRVLTAFSREPDSPKTYVQDILRTELAAEVHRVLCLERGHMFVCGDVTMATSVLQTVQRILATEGDMELDEAGDVIGVLRDQQRYHEDIFGLTLRTQEVTSRIRTQSFSLQERHLRGAVPWAFDPPGPDTPGP
# B2: S1179D: bovine eNOS with serine 1179 mutated to aspartic acid (protein)
# chain: B1 Nitric oxide synthase 3 with S1178D
# Assays:
# COS cells = experiment: cGMP accumulation in transfected COS cells as bioassay for NO; type: cell-based; details: eNOS alone or eNOS with Akt construct
# Text: (§1) Cell Transfections: The bovine eNOS, human iNOS, rat nNOS cDNAs in pcDNA3 and HA-tagged wild-type Akt, Akt (K179M) or myr-Akt in pCMV6 were generated by standard cloning methods. The myr-nNOS in pcDNA3 was generated by PCR, incorporating a new amino terminus containing the eNOS N-myristoylation consensus site (MGNLKSVG, SEQ ID NO:1) fused in frame to the second amino acid of the nNOS coding sequence. […] Mutation of the putative Akt phosphorylation sites in eNOS were generated using the Quick Change site-directed mutagenesis kit (Stratagene) according to the manufacturers instructions. All mutants were verified by DNA sequencing. COS-7 cells were plated (100 mm dish) and transfected with the NOS (7.5-30 mg) and Akt (1 mg) plasmids using calcium phosphate. To balance all transfections, the expression vector for β-galactosidase cDNA was used. Twenty-four to forty-eight hours after transfection, the expression of appropriate proteins (40-80 mg) were confirmed by Western blot analysis using eNOS mAb (9D10, Zymed), HA mAb (12CA5, Boehringer Mannheim), iNOS pAb (Zymed Laboratories) or nNOS mAb (Zymed Laboratories).
# NO release from transfected COS cells: 24-48 hrs after transfection, media was processed for the measurement of nitrite (NO2^−), the stable breakdown product of NO in aqueous solution, by NO specific chemiluminescence as described (Sessa et al., 1995). […]
# Akt = experiment: 32P phosphorylation of eNOS in intact transfected COS cells; type: cell-based; details: intact COS cells, 32P-orthophosphate
# Method: Phosphorylation studies in vivo and in vitro: For in vivo phosphorylation studies, COS cells were transfected with the cDNAs for wild-type or S635, 1179A eNOS and HA-Akt overnight. 36 hrs after transfection, cells were placed into dialyzed serum replete, phosphate-free Dulbecco's minimum essential medium supplemented with 80 μCi/ml of ^32P orthophosphoric acid for 3 hr. Some cells were pretreated with wortmannin (500 nM) in the phosphate-free media for 1 hr and during the labeling.
# [1] = DCIP reduction by purified eNOS; type: biochemical; details: FIG. 6B
# Method: Assays for Reductase Activity—NADPH-cytochrome c reductase activity and 2,6-dichlorophenolindophenol (DCIP) reduction were measured as a change in absorbance at 550 nm as described previously by Martasek et al. (1999) and Masters et al. (1967) using an extinction coefficient of 0.021 μM^−1 cm^−1 for both cytochrome c and DCIP. Briefly, a reaction mixture (1 ml) contained either cytochrome c (90 μM); DCIP (36 μM), HEPES buffer (50 mM) at pH 7.6, NaCl (250 mM), NADPH (100 μM), calmodulin (120 nM), and CaCl2 (200 μM); or other substances as indicated. The reaction was monitored for 60 s (at 23° C.) after the addition of eNOS. When inactivation of reductase activity was determined by the addition of EGTA (200-800 μM), chelator was added 1 min after initiation of the reaction and monitored for an additional 1 min. The reaction contained HEPES buffer (50 mM) at pH 7.6, CaM (120 nM), and CaCl2 (200 μM) and was initiated with NADPH (100 μM). No NaCl was added in experiments that examined EGTA inactivation of eNOS to mimic the conditions used in the hemoglobin capture experiments. […] Determination of the calcium EC50 for eNOS was performed as described above for the hemoglobin capture assay.
# COS-7 cells = experiment: NO release (NO2−, chemiluminescence) from transfected COS cells; type: cell-based; details: NOS construct co-transfected with Akt
# Text: as §1
# NO release from transfected COS cells: 24-48 hrs after transfection, media was processed for the measurement of nitrite (NO2^−), the stable breakdown product of NO in aqueous solution, by NO specific chemiluminescence as described (Sessa et al., 1995). Media was deproteinized and samples containing NO2^− were refluxed in glacial acetic acid containing sodium iodide. […] In all experiments, NO2^− release was inhibitable by a NOS inhibitor. In addition, NO2^−-release from cells transfected with the β-galactosidase cDNA was subtracted to control for background levels of NO2^− found in serum or media. In some experiments, cGMP accumulation in COS was used as a bioassay for the production of NO as described.
Molecule,cGMP accumulation (COS cells) [pmol cGMP/mg protein],enhancement in phosphorylation on co-expression of Akt relative to non-stimulated cells (Akt) [fold],DCIP reduction activity compared with wild type eNOS [1],Akt dependent NO release / activation of NOS construct (COS-7 cells)
B1,5.5±0.8,2,,
B2,,,significant increase in activity,partially mimics the activation state induced by Akt
